Measurements reported in article PMC11974935 (bioRxiv, 2025).

Target: the molecule itself
Assay: mass photometry

B1: full-length, wild-type Cdc13 (natural protein, S. cerevisiae, UniProt P32797 1-924, looked up)
chain: MDTLEEPECPPHKNRIFVSSSKDFEGYPSKAIVPVQFVALLTSIHLTETKCLLGFSNFERRGDQSQEDQYLIKLKFKDRGSERLARITISLLCQYFDIELPDLDSDSGASPTVILRDIHLERLCFSSCKALYVSKHGNYTLFLEDIKPLDLVSVISTISTKSTNSSKHSSSELISECDLNNSLVDIFNNLIEMNRDEKNRFKFVKLIHYDIELKKFVQDQQKVLSQKSKAAAINPFFVPNRLGIPYIESQNEFNSQLMTLNVDEPTTDISNMGEEMHDSADPIEDSDSSTTSSTGKYFSSKSYIQSQTPERKTSVPNNWHDDDSGSKRKRKLSFHSPNASSIRKAISYEQLSLASVGSVERLEGKIVGMNPPQFASINEFKYCTLKLYFTQLLPNVPDKVLVPGVNCIEIVIPTRERICELFGVLNCQSDKISDILLLEKPDRISVEVERILWDNDKTASPGMAVWSLKNISTDTQAQAQVQVPAQSSASIDPSRTRMSKMARKDPTIEFCQLGLDTFETKYITMFGMLVSCSFDKPAFISFVFSDFTKNDIVQNYLYDRYLIDYENKLELNEGFKAIMYKNQFETFDSKLRKIFNNGLRDLQNGRDENLSQYGIVCKMNIKVKMYNGKLNAIVRECEPVPHSQISSIASPSQCEHLRLFYQRAFKRIGESAISRYFEEYRRFFPIHRNGSHLAKLRFDEVKHEPKKSPTTPALAEHIPDLNADVSSFDVKFTDISSLLDSSARLPRPQQTHKSNTLYSCEGRIIAIEYHASDLCFHITNELPLLQTRGLAPERVLQLHIITSKNFAYFFNRSSAYLQRQPLEEKYTQLAQFLGHSFKFNITSSLTLFPDTTVALQIWCPIECTFRELQQQLAHPKVAAAPDSGSLDCAINATVNPLRLLAAQNGVTVKKEEDNDDDAGAVPTS
  stoichiometry N: 2
